Our source for the S/N ratio values is PMC12628836, “Lactobacillus rhamnosus YQ001 binds with GII.4 human noroviruses and inhibits viral replication in zebrafish larvae” (Applied and Environmental Microbiology, 2025).

This assay has as its target recombinant C2JX39 (DNA topoisomerase 4 subunit A) (Lactobacillus rhamnosus YQ001). The experiment in a line: ELISA; attachment factors coated at 280.0 pmol/mL in carbonate-bicarbonate buffer overnight at 4 C, blocked with 1.0% BSA; P protein (GI.1 or GII.4) 10.0 ug/mL, 1 h at 37 C; detected with anti-HuNoV monoclonal antibodies; positive when S/N >= 2.0. The conditions noted are these: both partners purified. For orientation: In an ELISA, binding on a coated surface is turned into a signal by an enzyme label.

B1: GII.4 HuNoV P protein (domain or fragment)
chain: KPFTVPILTVEEMTNSRFPIPLEKLFTGPSGAFVVQPQNGRCTTDGVLLGTTQLSPVNICTFRGDVTHIAGSRNYTMNLASLNWNNYDPTEEIPAPLGTPDFVGKIQGLLTQTTKGDGSTRGHKATVYTGSAPFTPKLGSVQFSTDTENDFETHQNTKFTPVGVIQDGSTTHRNEPQQWVLPSYSGRNVHNVHLAPAVAPTFPGEQLLFFRSTMPGCSGYPNMDLDCLLPQEWVQHFYQEAAPAQSDVALLRFVNPDTGRVLFECKLHKSGYVTVAHTGQHDLVIPPNGYFRFDSWVNQFYTLAPM
In the case of B1, the S/N ratio was determined as 16.9.
